Measured values from patent US20090053807A1 (Novo Nordisk A/S, priority 1998, published 2009).

B1: H2C-9aa-H2C: MBP fusion, H2C dimer peptide with 9 amino acid linker (protein)
chain: NNNNLGIEGRISEFIEGRAQPAMAFHENFYDWFVRQVSGGSGGSGGSFHENFYDWFVRQVSAAAGAPVPYPDPLEPRAA
modifications: left off: large carriers; small tags and cut ends
B2: H2C-3aa-H2C: MBP fusion, H2C dimer peptide (Site 1-Site 1) with 3 amino acid linker (protein)
chain: NNNNLGIEGRISEFIEGRAQPAMAFHENFYDWFVRQVSGGSFHENFYDWFVRQVSAAAGAPVPYPDPLEPRAA
modifications: left off: large carriers; small tags and cut ends
B3: RP30-IGF-12-D112: dimer peptide (Site 1-Site 1) (peptide)
chain: ADYKDSFYSCLESLVNGGAERSDGQWEGCRGGSGGSGGSGGSCWARPCGDAANFYDWFVQQASKKAAAGAPVPYPDPLEPRPG
B4: D112-12-RP30-IGF: dimer peptide (Site 1-Site 1) (peptide)
chain: ADYKDCWARPCGDAANFYDWFVQQASKKGGSGGSGGSGGSSFYSCLESLVNGGAERSDGQWEGCRAAAGAPVPYPDPLEPRPG

Columns and labels:
[1] = target: insulin receptor construct transfected into 32D cells (Homo sapiens, UniProt P06213); experiment: IR autophosphorylation assay in IR transfected 32D cells (ELISA); settings: MBP fusion peptides, FIG. 30
MCF-7 cells = experiment: MCF-7 cell proliferation assay, agonist format; format: cell-based, human; settings: MCF-7 and MiaPaCa cell proliferation (Tables 27-28)

Row | Molecule | stimulation of autophosphorylation of IR [1] | IGF-1R agonist activity (MCF-7 cells)
1 | B1 | active | 
2 | B2 | active | 
3 | B3 |  | IGF-1R agonist activity
4 | B4 |  | IGF-1R agonist activity
